The record followed here is patent US20250074980A1 (BRIGHAM AND WOMEN S HOSPITAL, published 2025).

Test [1] deals with T1, CEACAM3 on transfected HeLa cells (human, UniProt P40198 35-252).
T1 construct: whole, on cells; also called HeLa-CEACAM3; HeLa C3
T1 sequence (looked up): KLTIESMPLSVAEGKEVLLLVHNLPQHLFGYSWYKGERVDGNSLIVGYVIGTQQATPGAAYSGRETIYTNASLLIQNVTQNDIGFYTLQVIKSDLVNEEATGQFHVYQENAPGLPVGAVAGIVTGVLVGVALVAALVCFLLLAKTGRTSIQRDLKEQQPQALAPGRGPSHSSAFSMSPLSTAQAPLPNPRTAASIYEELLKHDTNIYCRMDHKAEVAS
Description: flow cytometry, HeLa-CEACAM3 transfectants, % staining, stacked bars. An excerpt:
FIG. 11 illustrates the binding selectivity of different affinity-matured CEACAM1 antibodies. […] HELA cells were transfected with vector alone (HeLa-Neo) or vectors expressing CEACAM1, CEACAM3, CEACAM5, or CEACAM6, respectively, and stained with the indicated antibodies. […] MOPC=mouse IgG1 control antibody. Mouse antibodies as positive control for transfected CEACAM isoforms: Col-1=CEACAM3 and CEACAM5 antibody. 9A6=CEACAM6 antibody. T84.1=CEACAM cross-reactive antibody and T84.66=CEACAM5 antibody. Only 2nd FITC=No primary antibody, only secondary FITC conjugated antibody. […] Data for affinity-matured antibodies 9B3_8H3/Vκ8 S29A, 8H3_9B3/CP08_E05, and 8H3_9C2/CPO08_F05, as well as data for CEACAM8 antibody 80H3 were omitted from the FIG. due to an unusually high background signal.

Test [2] deals with T2, His-tagged CEACAM1 (human, UniProt P13688 35-428).
T2 construct: 45 kDa SPR analyte; also called CEACAM1-HIS; CEACAM1 analyte
T2 sequence: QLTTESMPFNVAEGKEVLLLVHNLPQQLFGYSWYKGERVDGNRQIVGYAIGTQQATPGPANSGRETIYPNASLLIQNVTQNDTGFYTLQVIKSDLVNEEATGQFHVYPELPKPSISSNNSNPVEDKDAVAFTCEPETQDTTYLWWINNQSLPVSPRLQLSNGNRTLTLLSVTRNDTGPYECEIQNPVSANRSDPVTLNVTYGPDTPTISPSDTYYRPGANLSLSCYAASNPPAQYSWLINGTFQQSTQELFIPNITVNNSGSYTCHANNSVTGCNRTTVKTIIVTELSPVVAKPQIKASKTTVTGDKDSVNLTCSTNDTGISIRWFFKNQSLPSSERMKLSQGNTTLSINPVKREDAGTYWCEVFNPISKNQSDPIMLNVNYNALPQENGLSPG
Nature of the test: SPR single-cycle, supernatant IgG captured. An outline of the steps:
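Humanized, affinity-matured IgGs from crude supernatant (0.5 μg/ml in HBS-P+) captured on Protein A to ~100 RU. Single-cycle kinetics: CEACAM1 at three concentrations, 70–280 nM two-fold, 80 μl/min, 80 s association each, 150 s dissociation. Reference-channel and blank-run subtraction applied.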

The target of test [3] is T2, His-tagged CEACAM1. Description: SPR single-cycle, purified IgG captured. The method in brief:
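Binding was measured by surface plasmon resonance in single-cycle kinetics mode on a Biacore T200, running in HBS-P+ (pH 7.4) at 25° C. His-tagged CEACAM1 served as analyte over purified IgG captured on a Series S Protein A chip. After subtraction of reference-channel and blank-run signals, kon, koff and Kd were fitted, and relative KD was expressed against the parent antibody from the same experiment.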

A further test concerns the target T3, GST-CEACAM1 (human, UniProt P13688 35-141, limits assumed).
T3 construct: also called human CEACAM1-GST protein
T3 sequence: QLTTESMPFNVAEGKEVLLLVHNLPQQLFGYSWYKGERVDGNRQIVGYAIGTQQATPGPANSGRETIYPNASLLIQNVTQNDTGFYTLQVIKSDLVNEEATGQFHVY
Description: competition ELISA vs parental murine antibody. The procedure:
The binding of the purified antibodies to human CEACAM1 was assessed in a competition ELISA assay. Nunc Immuno MaxiSorp 96 well flat bottom microtitre plates were pre-coated with 1 μg/ml of GST-CEACAM1 in 1×PBS, overnight at 4° C. The following day the plates were blocked for 1 hour at room temperature (“RT”) with 2% BSA/PBS before washing 3× with PBST pH 7.4. A 3-fold dilution series of the chimeric antibody chimeric antibody VH0/Vκ0, an irrelevant IgG4 antibody, and the humanized CEACAM1 antibodies from 100 μg/ml to 0.07 or 0.002 μg/ml were pre-mixed with a constant concentration of parental murine antibody (0.45 μg/ml final concentration), added to the plate and incubated for 1 hour at room temperature. Following 3×PBST washes, the binding of the parental murine CEACAM1 antibody was detected with an anti-mouse-HRP and TMB substrate. The reaction was stopped with 3 M HCl, absorbance read at 450 nm on a Dynex Technologies MRX TC II plate reader and the binding curves plotted. The binding of the humanized CEACAM antibody variants to CEACAM1 was compared to the chimeric antibody (VHO/Vκ0), which was included on each plate.

Test [4] has as its target T2, His-tagged CEACAM1. Description: SPR single-cycle, IgG captured. The method in brief:
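Biacore T200 single-cycle kinetics at 25° C in HBS-P+ (pH 7.4): antibodies (purified or HEK EBNA supernatant, 1 μg/ml) captured on Protein A to ~75 RU, His-tagged CEACAM1 analyte at 3.125–50 nM (5-point 2-fold) at 50 μl/min without regeneration. Reference channel Fc1 subtracted.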

In test [5] the target is T2, His-tagged CEACAM1. Description: SPR single-cycle, supernatant IgG captured. The method in brief:
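Antibody IgG was produced by transient PEI transfection of HEK EBNA cells in 6-well plates, with supernatants collected 5-7 days later, quantified by ELISA and filtered. Binding was measured by single-cycle surface plasmon resonance on a Biacore T200 at 25° C in HBS-P+ (pH 7.4), capturing IgG on Protein A and flowing His-tagged CEACAM1 as analyte. Kon, koff and Kd were obtained by fitting, and relative KD was expressed against the parent antibody tested in the same experiment.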
The source holds these as a separate data set.

B1: 9B3_9E5/CP08E05 (antibody, IgG4, V domains shown)
VH: EVQLLESGGGLVQPGGSLRLSCAASGFTFNAHAISWVRQAPGKGLEWVATISSGGTYTYYPDSVKGRFTISRDNSKNTLYLQMNSLKAEDTAMYYCARHGFDYDAAWFAYWGQGTLVTVSS
VL: EIVLTQSPATLSLSPGERATLSCRANSAVSYMYWYQQKPGQAPRPWIYLTSNRATGVPARFSGSGSGTDYTLTISSLEPEDFAVYYCQQWTTNPPTFGQGTKLEIK
notes: IgG4 (S241P), kappa
In the case of B1, the binding result in test [1] was “binds”. Besides, in the test with His-tagged CEACAM1 [2], the Kd worked out at 67 nM, the koff is 0.0078 s⁻¹, the kon amounted to 120000 M⁻¹ s⁻¹ and the “relative KD to parent” value was found to be 8.3. For the same molecule, in the test with His-tagged CEACAM1 [3], the Kd came to 61 nM, the koff was determined as 0.007 s⁻¹, the kon came out at 110000 M⁻¹ s⁻¹ and the “relative KD to parent” value amounted to 7.8.

B2: VH3/Vκ5 (antibody, IgG4, V domains shown)
VH: EVQLLESGGGLVQPGGSLRLSCAASGFIFSSHGMSWVRQAPGKGLEWVATISSGGTYTYYADSVKGRFTISRDNSKNTLYLQMNSLRAEDTAMYYCARHDFDYDAAWFAYWGQGTLVTVSS
VL: EIVLTQSPATLSLSPGERATLSCRANSSVSYMAWYQQKPGQAPRLLIYLTSNRATGIPARFSGSGSGTDFTLTISSLEPEDFAVYYCQQWSSNPPTFGQGTKLEIK
notes: IgG4 (S241P), kappa
Regarding B2, the binding result is recorded as “no binding (tested: 100 µg/ml)” with GST-CEACAM1 and “no binding (tested: 50 nM)” with His-tagged CEACAM1 [4].

B3: VH4/Vκ3 (antibody, IgG4, V domains shown)
VH: EVQLLESGGGLVQPGGSLRLSCAASGFIFSSHGMSWVRQAPGKGLEWVSTISSGGTYTYYADSVKGRFTISRDNSKNTLYLQMNSLRAEDTAVYYCARHDFDYDAAWFAYWGQGTLVTVSS
VL: EIVLTQSPATLSLSPGERATLSCRANSSVSYMAWYQQKPGQAPRPWIYLTSNRATGVPARFSGSGSGTDYTLTISSLEPEDFATYYCQQWSSNPPTFGQGTKLEIK
notes: IgG4 (S241P), kappa
In the case of B3, the values for the binding result with GST-CEACAM1 and in the test with His-tagged CEACAM1 [4] were “no binding (tested: 100 µg/ml)” and “no binding (tested: 50 nM)”, respectively.

B4: VH2/Vκ5 (antibody, IgG4, V domains shown)
VH: EVQLLESGGGLVQPGGSLRLSCAASGFIFSSHGMSWVRQAPGKGLEWVATISSGGTYTYYPDSVKGRFTISRDNSKNTLYLQMNSLRAEDTAMYYCARHDFDYDAAWFAYWGQGTLVTVSS
VL: EIVLTQSPATLSLSPGERATLSCRANSSVSYMAWYQQKPGQAPRLLIYLTSNRATGIPARFSGSGSGTDFTLTISSLEPEDFAVYYCQQWSSNPPTFGQGTKLEIK
notes: IgG4 (S241P), kappa
For the molecule B4, the binding result with GST-CEACAM1 is reported as “no binding (tested: 100 µg/ml)”; with His-tagged CEACAM1 [4] it was “no binding (tested: 50 nM)”.

B5: VH4/Vκ5 (antibody, IgG4, V domains shown)
VH: EVQLLESGGGLVQPGGSLRLSCAASGFIFSSHGMSWVRQAPGKGLEWVSTISSGGTYTYYADSVKGRFTISRDNSKNTLYLQMNSLRAEDTAVYYCARHDFDYDAAWFAYWGQGTLVTVSS
VL: EIVLTQSPATLSLSPGERATLSCRANSSVSYMAWYQQKPGQAPRLLIYLTSNRATGIPARFSGSGSGTDFTLTISSLEPEDFAVYYCQQWSSNPPTFGQGTKLEIK
notes: IgG4 (S241P), kappa
As for B5, the binding result with GST-CEACAM1 is given as “no binding (tested: 100 µg/ml)”; in the test with His-tagged CEACAM1 [4], “no binding (tested: 50 nM)”.

B6: CP09C02/CP08E05 (antibody, IgG4, V domains shown)
VH: EVQLLESGGGLVQPGGSLRLSCAASEFTFSDHAMSWVRQAPGKGLEWVATISSGGTYTYYPDSVKGRFTISRDNSKNTLYLQMNSLKAEDTAMYYCARHGFDYDAAWFAYWGQGTLVTVSS
VL: EIVLTQSPATLSLSPGERATLSCRANSAVSYMYWYQQKPGQAPRPWIYLTSNRATGVPARFSGSGSGTDYTLTISSLEPEDFAVYYCQQWTTNPPTFGQGTKLEIK
notes: IgG4 (S241P), kappa
B6: in the test with His-tagged CEACAM1 [5], the Kd was 78 nM, the koff was 0.0075 s⁻¹, the kon came out at 96000 M⁻¹ s⁻¹ and the “relative KD to parent” value amounted to 7.1. The binding result in test [1] is reported as “binds”. In addition, in the test with His-tagged CEACAM1 [3], the affinity, expressed as Kd, was 72 nM; the koff worked out at 0.007 s⁻¹; the kon was 97000 M⁻¹ s⁻¹; the “relative KD to parent” value amounted to 6.6.
